B1: Guanylyl cyclase-activating protein 1, P43080 (parent)
chain: MGNVMEGKSVEELSSTECHQWYKKFMTECPSGQLTLYEFRQFFGLKNLSPSASQYVEQMFETFDFNKDGYIDFMEYVAALSLVLKGKVEQKLRWYFKLYDVDGNGCIDRDELLTIIQAIRAINPCSDTTMTAEEFTDTVFSKIDVNGDGELSLEEFIEGVQKDQMLLDTLTRSLDLTRIVRRLQNGEQDEEGADEAAEAAG

Variants of: B1
Settings: Homo sapiens; pH 7.5; Thermal; CD; Tris-HCl; KCl; transition: 2; whole UniProt chain shown

Variant	change of melting temperature, mutant - wild type (higher = more stable) [°C]
I107T	-8.1
L84F	-9.3

Same assay, conditions: Homo sapiens; pH 7.5; Thermal; CD; Tris-HCl; KCl; transition: 3; whole UniProt chain shown

Variant	change of melting temperature, mutant - wild type (higher = more stable) [°C]
I107T	-8.1

From FireProtDB (doi:10.1093/hmg/ddv370)
